Assay results published in patent publication EP4772624A1.

Target: human IgG1 antibody against KLH (keyhole limpet hemocyanin)
Experiment: cell-based or functional assay

Substance: wild-type IdeZ-mouse Fc fusion protein (from UniProt P01868 103-324)
- cleavage of human IgG1 antibody (SDS-PAGE, reducing; 37 C, 2 h): highest concentration ratio of antibody to fusion protein at which cleavage was confirmed (times (antibody to fusion protein)): 33
